Assay: label from the status in PepcDB records

With “MLPVQILKDNAQEERGESARLSSFVGAIAIGDLVKSTLGPKGMDKILISGNPESAGGIKVTNDGATILKSIGVDNPAAKVLVDMSMTQDHEVGDGTTSVTVLAAELLKEAEKLVNQRIHPQTIISGYRRALGIAQESLKKSSIESGDNIRDDLLKIARTTLGSKILSQHKEHFAQLAVDAVLRLKGSGNLDAIQIIKKLGGSMNESYLDEGFLLEKLPGMFQPRRVEKAKILIANTPMDTDKVKVFGSRVRVDGVAKVAELEAAEKLKMKEKVDKILAHNCNVFINRQLIYNYPEQLFADAKVMAIEHADFEGIERLALVLGGEIVSTFDSPQTAQFGSCDLIEEIMIGEDRLLRFSGVKLGEACSVVLRGATQQILDESERSLHDALCVLVTHVKESKTVAGAGASEILMSSAIAVEAQKVAGKEALAVEAFGRALAQLPTIICDNAGLDSAELVTRLRAEHANGRHNMGIDIEKGEVADVTKLGVIESYNVKLCMVSSAAEATEQILRVDDIIKAAPRARAQDNRPC” as the sequence, how does the protein production read?
Its protein production is “not failed”.

With “MLQCGAKNVNPLERFVSSLPVAAVLPELLAALDGASQVLLSAPTGAGKSTWLPLQLLAHPGINGKIILLEPRRLAARNVAQRLAELLNEKPGDTVGYRMRAQNCVGPNTRLEVITEGVLTRMIQRDPELSGVGLVILDEFHERSLQADLALALLLDVQQGLRDDLKLLIMSA” as the sequence, how does the protein production read?
The protein production was “failed”.

For “MLQEDLRKKAGQLFAVGFHGVVPSPEIKTLIHEYGIGGIVLFKRNIQNAMQLQLPGPMALGATHSPELAYQVGQVTGETLRFFGINMNYAPVCDINSEPLNPVIGPRSPGDDPEFVGRFASAAAQGLREQKIIPSVKHFPGHGDTAVDSHYGLPVIEKTREQLERCELIPFRRAVAEGVEAVMTAHISLPAIGDGKLPATLSADVLSILRNEMQFEGMIITDCLEMDGIRATYGTEQGAVLSLEAGSDSIMICHTYAVQVASIQKVCEAVQSGQLSASRLEEAYRRVVKLKSKFLSWDTALLTRSLDDLVTLNRKAA”, which protein production is on record?
The protein production was “failed”.

With “MLQMRTDLMAVACGRRSADLYIENGRVLNVHSGEILSGVGVAVASGRVAYVGPSRGMIGPETQFLDAEGGILVPGYVDPHAHFDNILSPRRLAEALLPLGTTMVVNDTLAVVARFGAPGLACLRAAATSLPLHFGWTVPISGWAPELEEAGYFAGLGLTDAELDVLLADETVLGTSEFLPWRRLLAGDQRLIARLDIARRHGKCCEGHNPGARADHLQVIAAAGLTDCHEALTSAEALNRLRAGLYVVLRHGPARYDLPELASLVMKEGVDRSRLMLTPDWVPPNDLAAFGHMDHPLSAAMEAGIPPLDAYRMASLNPARYFRIEGQIGSIAPGRYADILCLNDLREPRPKWVMAQGAVVARNGVPTPDWHGLDELELPAYRPSVLHASPADFRVASAGTGDVLVPAIEIMDRTVTRRIDLHLPVKDGVVSCAGEEGRVMKMAMPHPEGGFSIGFLVGVGGCLGAMSNSLASEPYHTLVIGTSDDDMAIAYNRMIELGGGVVTVQDGRIEAQLPLPLGGFMTKASAADVGAGIDAVNQWARNNGSNLENAFLTQHFLTYVGVPFFRMTPWGIYDVRKHCFLPPILNQGSEEDAL” as the sequence, how does the protein production read?
Its protein production is “failed”.

With “MLQQQRTNSRGEKYVIGPTGAPLTLADLPPAETQRWVIRRKAEVVAAVRGGLLSLDEACDRYKLTNDEFLSWQQSIDRHGLAGLRTTRIQQYRLEHHHHHH” as the sequence, how does the protein production read?
Its protein production is “not failed”.

With “MLQSINQLNPDIVVITGDLTENGFSAEYDGVKMFIDRIECKNRVLVPGNHDSKNAGYLHFEDLFENRFQTRNLGNMTIVGADSSQPDIDDGHLGRENYGWIKEAFSGENFKVFALHHHLVPIPLAGRENTVLVDAGDVLDLLNKCRVNLVLCGHCHIPHVWNLNNMLVVNAGTFCSSKTRGKTTQCFNLIQAENSEKNGNGESEKIEDGGWKVRVSRVFPQGNIEFITETVMLEHHHHHH” as the sequence, how does the protein production read?
Its protein production is “failed”.

For “MLQVPKLTIIMPVYNTAQYLPRAFDALLKQIDKSFKLIVVDDGSTDNSVEVAQNYAYRFPYFKLIKKKNGGPSDARNVGMQYIDTPYVTFHDGDDWVDPGYTSFFIRAFEEHPDVNLVSCGYWMDYPDKKSRVVGRPEGGFLTRGETYLKLTNVFGSPMKGYSWNKAYKTAIIKKFHLQFDRDISLLEDQIFNVKYISVAKGVYYTQRPYYHYWQRKGSIIHQPNVKKVADNFRGNYRVWRRIIKTMLKDHEDEKMRKKLDRSPLRDSDVQ”, which protein production is on record?
Its protein production is “failed”.

With “MLRASLLCSSTSITFTPIQLFNPNSSHRFPRFELSRPVSALSRTKCHLSLLRARGKSSFLTRSTATDEAVETSSNSGLDLVEVGFLSGVHGLQGEICIKPNTDFPDLRFSKPGRRWLKQQLLGQDKIDEVELVEGRPHPAQKSWILKFRGLDDVDQVRQLVGATLLAEDDDRPELDEGEFYSRDLVGMRVLLKETGQLVGTVANIFDNGGNDLLHVLLDSSMEVCNGNAKTNQLVWIPFVDAIVPDVDLERKEMYITPPKGLLEVNMRADDRSKKERRQLEWKERKKQQKRLIAAKKKLCEMEQKHVFDGLRFGEKSQRNLLADHILNVNSTLLQKALQSIDTSSKRWNVTEEINALRARVSECNLSVSRECLSFDASKENMGDNFSFLQQGQNLFSEGKVSICLVLNDHENEEPEGENGVVSYLHALLDEEQRFIKEEDRACVPLVIVSPEHTIEALQKLFQDNDHFGFESEKIWILKEETLPVVCSSPEEPKKHKILMKSPWEILESPVGSGGVLSILASHGTTDSLSTLGINYLQVHSIETKPQPSQHYINPMLVGFVSARGAEIGIQVTEESELKNLEMTFSMKFLKRLKGKIEFEAVMKMNSHVQNVEKEWVESVPSEPNSFEFRSDIYRVLSECSSSAKICLMNITV” as the sequence, how does the protein production read?
The protein production was “failed”.

For “MLRCSHSKGVNYINFSATGKLLVSVGVDPEHTITVWRWQEGTKVASRGGHLERIFVVEFRPDSDTQFVSVGVKHMKFWTLAGSALLYKKGVIGSMEAARMQTMLSVAFGANNLTFTGAINGDVYVWKEHFLIRLVAKAHTGPVFTMYTTLRDGLIVTGGKERPTKEGGAVKLWDQEMKRCRAFQLETGQLVECVRSVCRGKGKILVGTKDGEIIEVGEKSAASNILIDGHMEGEIWGLATHPSKDMFISASNDGTARIWDLADKKLLNKVNLGHAARCAAYSPDGEMVAIGMKNGEFIILLVNSLKVWGKKRDRKSAIQDIRISPDNRFLAVGSSEHTVDFYDLTQGTSLNRIGYCKDIPSFVIQMDFSADSKYIQVSTGAYKRQVHEVPLGKQVTEAMVIEKITWASWTSVLGDEVIGIWPRNADKADVNCACVTHDGLNIVTGDDFGLVKLFDFPCTEKFAKHKRYFGHSAHVTNIRFSYDDKYVVSTGGDDCSVFVWRCL”, which protein production is on record?
The protein production was “failed”.

With “MLRIFQGRPAVTIAAVLVAASVAGCAGKAKKPTLVYEERPVELLYSTGADRLDRGNWNEAVDYFREVERQHPYSEWSRRSILMTGYAHYMGNQYAEAIGDADRFISLYPGNPSAQYAFYLKAICYFEQIVDVNRDQAATEQALAALRDVVQRYPNTEYATDARLKIDMVNDQLAGKEMAIGRWYLKNGQTLAAIGRFKAVIERHQTTSHTPEALFRLVEAYLTIGLNEEAKRNGAVLGYNFPGDRWYVDAYRLLNDNGLRPAVEPLKAGAKRNALERILSKDKEATLAPPGERKAKKGLLGPLGM” as the sequence, how does the protein production read?
Its protein production is “failed”.

With “MLRLSAPGQLDDDLCLLGDVQVPVFLLRLGEASWALVEGGISRDAELVWADLCRWVADPSQVHYWLITHKHYDHCGLLPYLCPRLPNVQVLASERTCQAWKSESAVRVVERLNRQLLRAEQRLPEACAWDALPVRAVADGEWLELGPRHRLQVIEAHGHSDDHVVFYDVRRRRLFCGDALGEFDEAEGVWRPLVFDDMEAYLESLERLQRLPTLLQLIPGHGGLLRGRLAADGAESAYTECLRLCRRLLWRQSMGESLDELSEELHRAWGGQSVDFLPGELHLGSMRRMLEILSRQALPLD” as the sequence, how does the protein production read?
The protein production was “failed”.

Which protein production does the source give for “MLRNKAFVVRLYPNAAQAERINRTLGCARFVYNHFLARRIESYRQDGKGMIYAATDKALTLLKREEGTAWLAEVDKFALQQSLRDLERAYQNFFRTAKKSGKKVGFPKFKKKRTGEAYRTQFTNNNIEIGEGKLKLPKLGWVKTRGQRDMQGKILNVTVRRIHEGHYEASVLCEVEIPYLPAAPKFAAGVDVGIKDFAIVTDGKGEFEHHANPKYYRSSLRRLRKAQKTLSRRKKGSARYGRAKTTLARIHKRVANKRQDFIHKLTTSLVREYEITCTEHLKPDNMRKNRRLALSVSDAGWGEFIRQLEYKATWYGRLVSKISPYFPSSQICHDCGFKNPAVKNLAVREWTCPNCGETHDRDENAALNIRREGLVAAGMSDTQNAHGDCIRPTSVGSGLRSENHATSVVLEHHHHHH” here?
The protein production was “not failed”.

Which protein production does the source give for “MLRQIRRNALSNFLSLWNEAATTSLGFFWMALWAFILGYVISSLIQVLVTRRKMQQAMGEDGPRSIALGTFFGFISSSCSFSALATTRAIFNKGAGLAPSLAFMLASTNLVIELGIVIAVFLGWQFVVGEYVGGVLLILVTWLLIRLTRPRRLEAQARRKMDDGDGDGGNSDKSWKEKITSKEGWQAIAQTYVMEWQMVWKDVLIGFTVAGIISAMVPQSFFEALFIGAGGENAANPGFLAVLSQTLVGPIAAFFTFIGSMGNIPLAAVLFAQGVSFAGVMAFIFSDLVVLPVLRINASYYGWKMALYILALMLVGIVTVSLLMHYSLALLGMLPDFSGQTSMGEREFFKWNYQAVLNILFLTATAILLWFWRQGQKQHSHDHHHHDHDHGGSSLTDKVLSVLVVVALLWLAGGVVVPLF” here?
Its protein production is “failed”.

For “MLRSSAAAGKGGRILAAKQVNPTRMELTRLKKKRITAIRGHKLLKDKRDELMRQYLDLVRENMEVRKKVEAGIRSANKNFVIAKAGMSEAALNTALMAPKQEVNLEAGEKNVMSVDIPTFQYKTRTADENDIYSYGFAFTSGDLDGAVKSLADVLPDMIRLAECEKACQLMAAEIEKTRRRVNALEHVIIPETEQSIKYITMKLDENERSTQIRLMKVKDMMLEETHHYSEK”, which protein production is on record?
Its protein production is “failed”.

With “MLRVVSLTLVTLISAVAAAAAEPQAGDDLAICRDRQAELQARAQACDNLLNADRLAGKDKAIALSVRGNTLINKRDYARAIETLSMAVDLDPDNVIVLNLRGLAYERSGKDDLAMADYNLALQKRPTYGVPYNNRGVIHLRRGALQSALDDFNLSIKYTPKFLLGWTNRARVRTLMKDFDGAIADFAEAEKIDPAAPQIAGNRCITWGMMGKYDQAFADCNGLIEKQPKNVYAINNRADVSMMKGDLDAALKDYNSAIQINPNNVRAHSGRGQIYERRKDLAQARADYRAAAYSLTKFDELDVARARAVAQERLAALTPQAPAGATGRRVALVIGNGAYKNVHALPNPPRDSKLIANALRDVGFQTVISVSDLTRDKFFEALQTFAAEAEKADWAVVYYAGHGFEIGGVNYLVPVDAKLAADRDAEAQAVALEQVIAAVGAARKVRLVMLDACRDNPFAPTMQRTLSLKLVDKGFSNIEPGAGFMVVYAAKHGETAMDGDGGTDSPFATALAREIKEPRVEIRKLFDIVRDDVWSATRHEQQPFTYGSPPGREDFYFAAGK” as the sequence, how does the protein production read?
Its protein production is “failed”.

With “MLRYHMQGFSGYGVQYSPFFDNRLAVAAGSNFGLVGNGKLFILEIDRSGRIVEVNSFLTQDCLFDLAWNESHENQVLVAQGDGTLRLFDTTFKEFPIAIFKEHEREVFSCNWNLVNRQNFLSSSWDGSIKIWSPLRKQSLMTLTPRPLEITKMVDPLNAIILKKKSFTGISKNRNCVYQAQFSPHDQNLVLSCSGNSYASLFDIRLPSGKNQNNFLVHSGLEALTCDFNKYRPYVVATGGVDNAIRIWDIRMLNKNESATIKRTVPGQLHNSSCINEIPNAHGLAIRKVTWSPHHSNILMSASYDMTCRIWRDLSNDGAKETYKTNSTDATKGSIFNFTQHSEFVFGADWSLWGKPGYVASTAWDGNLFVWNGLG” as the sequence, how does the protein production read?
Its protein production is “failed”.

Reference: a protein production outcome set (Wang et al. 2014)
